{"source": "patent US20110091994A1", "about": "“Methods for Screening Compounds for Treating and/or Preventing an Hepatitis C Virus Infection” (priority 2008, published 2011)", "molecules": {"B1": {"name": "CEP68 (protein, UniProt Q76N32 1-757, looked up)", "Centrosomal protein of 68 kDa": "MALGEEKAEAEASEDTKAQSYGRGSCRERELDIPGPMSGEQPPRLEAEGGLISPVWGAEGIPAPTCWIGTDPGGPSRAHQPQASDANREPVAERSEPALSGLPPATMGSGDLLLSGESQVEKTKLSSSEEFPQTLSLPRTTTICSGHDADTEDDPSLADLPQALDLSQQPHSSGLSCLSQWKSVLSPGSAAQPSSCSISASSTGSSLQGHQERAEPRGGSLAKVSSSLEPVVPQEPSSVVGLGPRPQWSPQPVFSGGDASGLGRRRLSFQAEYWACVLPDSLPPSPDRHSPLWNPNKEYEDLLDYTYPLRPGPQLPKHLDSRVPADPVLQDSGVDLDSFSVSPASTLKSPTNVSPNCPPAEATALPFSGPREPSLKQWPSRVPQKQGGMGLASWSQLASTPRAPGSRDARWERREPALRGAKDRLTIGKHLDMGSPQLRTRDRGWPSPRPEREKRTSQSARRPTCTESRWKSEEEVESDDEYLALPARLTQVSSLVSYLGSISTLVTLPTGDIKGQSPLEVSDSDGPASFPSSSSQSQLPPGAALQGSGDPEGQNPCFLRSFVRAHDSAGEGSLGSSQALGVSSGLLKTRPSLPARLDRWPFSDPDVEGQLPRKGGEQGKESLVQCVKTFCCQLEELICWLYNVADVTDHGTAARSNLTSLKSSLQLYRQFKKDIDEHQSLTESVLQKGEILLQCLLENTPVLEDVLGRIAKQSGELESHADRLYDSILASLDMLAGCTLIPDKKPMAAMEHPCEGV"}, "B2": {"name": "C16orf7 (protein, UniProt Q9Y2B5 1-631, looked up)", "VPS9 domain-containing …": "MAAAAGDGTVKPLQSAMKLANGAIELDTGNRPREAYTEYLRSIHYISQVLLEEVETTKEAGETVPPDTSKMLKLAQQCLERAQSTAAKLGKTRLKPTMPAAAPIPQPAGRHRRVYSDEGGKLSPFLPPEIFQKLQGAESQSCKKELTPLEEASLQNQKLKAAYEARMARLDPSQAMQKTSLTLSLQRQMMENLVIAKAREETLQRKMEERRLRLQEAANRRFCSQVALTPEEREQRALYAAILEYEQDHDWPKHWKAKLKRNPGDLSLVTSLVSHLLSLPDHPIAQLLRRLQCSVYSALYPAVSRAAAPAPGCCPPTPNPGSRRLRPSQSLHCMLSPPEPSAAPRPQDSPPTPPLQPGPVGSPSPLGDTASGLPDKDSSFEDLEQFLGTSERQGRGRGVQPEPQLQQLKTAVEEIHNAVDRLLSLTLLAFEGLNTAASKDRCLACIEEPFFSPLWPLLLALYRSVHRAREAALSRSMELYRNAPPTAIGIPTKLLPQNPEAKGATGYPYCAAAQELGLLVLESCPQKKLECIVRTLRIICVCAEDYCPTPEATPQAGPPPIAAAAIGADDLLPILSFVVLRSGLPQLVSECAALEEFIHEGYLIGEEGYCLTSLQSALSYVELLPRGGLAK"}, "B3": {"name": "SMEK2 (protein, UniProt Q5MIZ7 1-849, looked up)", "Serine/threonine-protein …": "MSDTRRRVKVYTLNEDRQWDDRGTGHVSSTYVEELKGMSLLVRAESDGSLLLESKINPNTAYQKQQDTLIVWSEAENYDLALSFQEKAGCDEIWEKICQVQGKDPSVEVTQDLIDESEEERFEEMPETSHLIDLPTCELNKLEEIADLVTSVLSSPIRREKLALALENEGYIKKLLQLFQACENLENTEGLHHLYEIIRGILFLNKATLFEVMFSDECIMDVVGCLEYDPALAQPKRHREFLTKTAKFKEVIPITDSELRQKIHQTYRVQYIQDIILPTPSVFEENFLSTLTSFIFFNKVEIVSMLQEDEKFLSEVFAQLTDEATDDDKRRELVNFFKEFCAFSQTLQPQNRDAFFKTLAKLGILPALEIVMGMDDLQVRSAATDIFSYLVEFSPSMVREFVMQEAQQSDDDILLINVVIEQMICDTDPELGGAVQLMGLLRTLIDPENMLATTNKTEKSEFLNFFYNHCMHVLTAPLLTNTSEDKCEKDFFLKHYRYSWSFICTPSHSHSHSTPSSSISQDNIVGSNKNNTICPDNYQTAQLLALILELLTFCVEHHTYHIKNYIMNKDLLRRVLVLMNSKHTFLALCALRFMRRIIGLKDEFYNRYITKGNLFEPVINALLDNGTRYNLLNSAVIELFEFIRVEDIKSLTAHIVENFYKALESIEYVQTFKGLKTKYEQEKDRQNQKLNSVPSILRSNRFRRDAKALEEDEEMWFNEDEEEEGKAVVAPVEKPKPEDDFPDNYEKFMETKKAKESEDKENLPKRTSPGGFKFTFSHSASAANGTNSKSVVAQIPPATSNGSSSKTTNLPTSVTATKGSLVGLVDYPDDEEEDEEEESSPRKRPRLGS"}, "B4": {"name": "USP19 (protein, UniProt O94966 1-1318, looked up)", "Ubiquitin carboxyl-terminal …": "MSGGASATGPRRGPPGLEDTTSKKKQKDRANQESKDGDPRKETGSRYVAQAGLEPLASGDPSASASHAAGITGSRHRTRLFFPSSSGSASTPQEEQTKEGACEDPHDLLATPTPELLLDWRQSAEEVIVKLRVGVGPLQLEDVDAAFTDTDCVVRFAGGQQWGGVFYAEIKSSCAKVQTRKGSLLHLTLPKKVPMLTWPSLLVEADEQLCIPPLNSQTCLLGSEENLAPLAGEKAVPPGNDPVSPAMVRSRNPGKDDCAKEEMAVAADAATLVDEPESMVNLAFVKNDSYEKGPDSVVVHVYVKEICRDTSRVLFREQDFTLIFQTRDGNFLRLHPGCGPHTTFRWQVKLRNLIEPEQCTFCFTASRIDICLRKRQSQRWGGLEAPAARVGGAKVAVPTGPTPLDSTPPGGAPHPLTGQEEARAVEKDKSKARSEDTGLDSVATRTPMEHVTPKPETHLASPKPTCMVPPMPHSPVSGDSVEEEEEEEKKVCLPGFTGLVNLGNTCFMNSVIQSLSNTRELRDFFHDRSFEAEINYNNPLGTGGRLAIGFAVLLRALWKGTHHAFQPSKLKAIVASKASQFTGYAQHDAQEFMAFLLDGLHEDLNRIQNKPYTETVDSDGRPDEVVAEEAWQRHKMRNDSFIVDLFQGQYKSKLVCPVCAKVSITFDPFLYLPVPLPQKQKVLPVFYFAREPHSKPIKFLVSVSKENSTASEVLDSLSQSVHVKPENLRLAEVIKNRFHRVFLPSHSLDTVSPSDTLLCFELLSSELAKERVVVLEVQQRPQVPSVPISKCAACQRKQQSEDEKLKRCTRCYRVGYCNQLCQKTHWPDHKGLCRPENIGYPFLVSVPASRLTYARLAQLLEGYARYSVSVFQPPFQPGRMALESQSPGCTTLLSTGSLEAGDSERDPIQPPELQLVTPMAEGDTGLPRVWAAPDRGPVPSTSGISSEMLASGPIEVGSLPAGERVSRPEAAVPGYQHPSEAMNAHTPQFFIYKIDSSNREQRLEDKGDTPLELGDDCSLALVWRNNERLQEFVLVASKELECAEDPGSAGEAARAGHFTLDQCLNLFTRPEVLAPEEAWYCPQCKQHREASKQLLLWRLPNVLIVQLKRFSFRSFIWRDKINDLVEFPVRNLDLSKFCIGQKEEQLPSYDLYAVINHYGGMIGGHYTACARLPNDRSSQRSDVGWRLFDDSTVTTVDESQVVTRYAYVLFYRRRNSPVERPPRAGHSEHHPDLGPAAEAAASQASRIWQELEAEEEPVPEGSGPLGPWGPQDWVGPLPRGPTTPDEGCLRYFVLGTVAALVALVLNVFYPLVSQSRWR"}, "B5": {"name": "FXYD6 (protein, UniProt Q9H0Q3 19-95, looked up)", "FXYD domain-containing ion …": "SAAEKEKEMDPFHYDYQTLRIGGLVFAVVLFSVGILLILSRRCKCSFNQKPRAPGDEEAQVENLITANATEPQKAEN"}, "B6": {"name": "SEPT10 (protein, UniProt Q9P0V9 1-454, looked up)", "Septin-10": "MASSEVARHLLFQSHMATKTTCMSSQGSDDEQIKRENIRSLTMSGHVGFESLPDQLVNRSIQQGFCFNILCVGETGIGKSTLIDTLFNTNFEDYESSHFCPNVKLKAQTYELQESNVQLKLTIVNTVGFGDQINKEESYQPIVDYIDAQFEAYLQEELKIKRSLFTYHDSRIHVCLYFISPTGHSLKTLDLLTMKNLDSKVNIIPVIAKADTVSKTELQKFKIKLMSELVSNGVQIYQFPTDDDTIAKVNAAMNGQLPFAVVGSMDEVKVGNKMVKARQYPWGVVQVENENHCDFVKLREMLICTNMEDLREQTHTRHYELYRRCKLEEMGFTDVGPENKPVSVQETYEAKRHEFHGERQRKEEEMKQMFVQRVKEKEAILKEAERELQAKFEHLKRLHQEERMKLEEKRRLLEEEIIAFSKKKATSEIFHSQSFLATGSNLRKDKDRKNSNFL"}}, "key": {"[1]": {"target": "T1, HCV proteins (Hepatitis C virus genotype 1b, UniProt Q9WMX2)", "T1 construct": "expressed in transfected cells", "test": "Validation by Y2H pairwise matrices;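 also: yeast two-hybrid pairwise tests of interactions first found in Y2H screens of HCV bait proteins against human cDNA libraries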", "assay_type": "binding"}, "[2]": {"target": "T2, HCV ORFs (Gal4-DB fusions) (Hepatitis C virus genotype 1b, UniProt Q9WMX2)", "T2 construct": "expressed in transfected cells; host or cells: Saccharomyces cerevisiae MAV203 (IMAP1) / AH109 (IMAP2)", "assay_type": "binding, HCV genotype 1b, isolate con1", "details": "human protein as prey", "method": "(§1) HCV ORFs were transferred from pDONR223 into bait vector (pPC97) to be expressed as Gal4-DB fusions in yeast. Two different screening methods were used (IMAP1 and IMAP2). Both for IMAP1 and IMAP2 strategies and because bait constructs sometimes self-transactivate reporter genes, SD-L-H culture medium were supplemented with 3-aminotriazole (3-AT). Appropriate concentrations of this drug were determined by growing bait strains on SD-L-H medium supplemented with increasing concentrations of 3-AT. […] For IMAP1, bait vectors were introduced in MAV203 yeast strain and both human spleen and foetal brain AD-cDNA libraries (Invitrogen) were screened by transformation as described (7). All primary positive clones (selected on SD-W-L-H+3-AT) were tested by further phenotypic assay using two additional reporter genes: LacZ (X-Gal colorimetric assay) and URA3 (growth assay on 5-FOA supplemented medium). […] AD-cDNA were PCR-amplified and inserts were sequenced to identify interactors. IMAP2 screens were performed by yeast mating, using AH109 and Y187 yeast strains (Clontech (8)). Bait vectors were transformed into AH109 (bait strain) and human spleen and foetal brain AD-cDNA libraries (Invitrogen) were transformed into Y187 (prey strain). Single bait strains were mated with prey strains then diploids were plated on SD-W-L-H+3-AT medium. Positive clones were maintained onto this selective medium for 15 days to eliminate any contaminant AD-cDNA plasmid (9). AD-cDNAs were PCR amplified and inserts were sequenced.\n(§2) We have developed a bioinformatic pipeline that assigns each IST to its native human genome transcript. […] Gal4 motif was searched (last 87 bases of GAL4-AD), sequences downstream of this motif were translated into peptides and aligned using BLASTP against the REFSEQ (http://www.ncbi.nlm.nih.gov/RefSeq/) human protein sequence database (release 04/2007). Low-confidence alignments (E value>10^−10, identity <80%) and premature STOP codon containing sequences were eliminated. Only in-frame proteins and high quality sequences were further considered"}, "[3]": {"tested_on": "HCV ORFs (Gal4-DB fusions)", "assay_type": "binding, HCV genotype 1b, isolate con1", "details": "human protein listed by gene symbol; the value names the HCV protein it interacts with", "method": "as §1, §2"}}, "note": "Like-named read-outs stand apart in the source and are kept apart here.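 For IMAP Y2H IMAP1 (number of IST) in this document: yeast two-hybrid screens using HCV genotype 1b proteins fused to Gal4-DB as baits against prey cDNA libraries from human spleen and foetal brain, IMAP1 via transformation and IMAP2 via mating.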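 For IMAP Y2H IMAP2 (number of IST) in this document: yeast two-hybrid screens using HCV genotype 1b proteins fused to Gal4-DB as baits against prey cDNA libraries from human spleen and foetal brain, IMAP1 via transformation and IMAP2 via mating.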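 For Interaction with viral protein in this document: yeast two-hybrid screens using HCV genotype 1b proteins fused to Gal4-DB as baits against prey cDNA libraries from human spleen and foetal brain, IMAP1 via transformation and IMAP2 via mating.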"}
{"molecule": "B1", "values": [{"measurement": "Y2H matrices", "setting": "[1]; interaction with HCV protein NS5B", "result": "+"}, {"measurement": "IMAP Y2H IMAP1 (number of IST)", "setting": "[2]; HCV protein NS5B as bait", "result": 1}]}
{"molecule": "B2", "values": [{"measurement": "Interaction with viral protein", "setting": "[3]", "result": "NS3"}, {"measurement": "IMAP Y2H IMAP2 (number of IST)", "setting": "[2]; HCV protein NS3 as bait", "result": 1}]}
{"molecule": "B3", "values": [{"measurement": "Y2H matrices", "setting": "[1]; validation of interaction with HCV protein E2", "result": "+"}, {"measurement": "IMAP Y2H IMAP1 (number of IST)", "setting": "[2]; HCV protein E2 as bait", "result": 1}]}
{"molecule": "B4", "values": [{"measurement": "Y2H matrices", "setting": "[1]; interaction with HCV protein NS5A", "result": "+"}, {"measurement": "IMAP Y2H IMAP1 (number of IST)", "setting": "[2]; HCV protein NS5A as bait", "result": 3}]}
{"molecule": "B5", "values": [{"measurement": "Y2H matrices", "setting": "[1]; interaction with HCV protein p7", "result": "+"}, {"measurement": "IMAP Y2H IMAP1 (number of IST)", "setting": "[2]; HCV protein p7 as bait", "result": 1}]}
{"molecule": "B6", "values": [{"measurement": "Y2H matrices", "setting": "[1]; validation of interaction with HCV protein NS3", "result": "+"}, {"measurement": "IMAP Y2H IMAP1 (number of IST)", "setting": "[2]; HCV protein NS3 as bait", "result": 1}]}
